Among the data in patent US20050123944 are complex half-life (min (half-life)) values, retold here.

The data set concerns BamHI. The data set can be described thus: EMSA. The conditions noted are these: value is complex half-life, not a rate; 5 mM CaCl2, no Mg2+; 2 nM BamHI, 100 pM DNA, 6000-fold unlabeled competitor.

For DNA duplex with single BamHI site, the complex half-life (min (half-life)) came out at 39600.
